Test results reported in the supplement of paper PMC7125110.
± gives the standard error. For some of these results: Fewer inactive variants are shown than the library holds.

B1: glmS ribozyme (parent)
chain: AUAAAAGCGCCAGAACUACAGAAAUGUAGUUGACGAGGAGGAGGUUUAUCGAAUUUUCGGCGGAUGCCUCCAAA

Experiments:
Details in all cases: with glucosamine-6-phosphate
glucosamine-6-phosphate [1] = variants of: B1; assay: kcat; higher = faster cleavage; RNA array
Outline: (§1)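 Glucosamine-6-phosphate (40 μM to 10 mM) in HEPES/KCl/Mg(OAc)2 buffer was flowed over sequenced MiSeq chips, and tiles were imaged over ~14 h. Barcoded ribozyme variants there had been transcribed in situ by E. coli RNA polymerase and were tracked through a hybridised Cy3 probe at 37 °C. One- or two-exponential decay fits to per-tile medians, normalised to baseline and to non-cleaving reference variants, gave kobs. kcat and KM came from weighted Michaelis–Menten fits across concentrations.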

glucosamine-6-phosphate [2] = variants of: B1; assay: self-cleavage kobs at 2500 uM GlcN6P; higher = faster cleavage; RNA array
Outline: as §1

glucosamine-6-phosphate [3] = variants of: B1; assay: self-cleavage kobs at 10000 uM GlcN6P; higher = faster cleavage; RNA array
Outline: as §1

glucosamine-6-phosphate [4] = variants of: B1; assay: KM; higher = weaker cofactor use; RNA array
Outline: as §1

glucosamine-6-phosphate [5] = variants of: B1; assay: self-cleavage kobs at 40 uM GlcN6P; higher = faster cleavage; RNA array
Outline: as §1

glucosamine-6-phosphate [6] = variants of: B1; assay: self-cleavage kobs at 160 uM GlcN6P; higher = faster cleavage; RNA array
Outline: as §1

glucosamine-6-phosphate [7] = variants of: B1; assay: self-cleavage kobs at 640 uM GlcN6P; higher = faster cleavage; RNA array
Outline: as §1

Variant | kcat (glucosamine-6-phosphate [1]) | self-cleavage kobs at 2500 uM GlcN6P (glucosamine-6-phosphate [2]) | self-cleavage kobs at 10000 uM GlcN6P (glucosamine-6-phosphate [3]) | KM (glucosamine-6-phosphate [4]) | self-cleavage kobs at 40 uM GlcN6P (glucosamine-6-phosphate [5]) | self-cleavage kobs at 160 uM GlcN6P (glucosamine-6-phosphate [6]) | self-cleavage kobs at 640 uM GlcN6P (glucosamine-6-phosphate [7])
U46C A48C | 0.000204 ± 4.7e-05 s⁻¹ | 8.54e-05 ± 2.8e-05 s⁻¹ | 0.000136 ± 2.8e-05 s⁻¹ | – | – | – | –
A15U C71A | 0.000688 ± 4.8e-05 s⁻¹ | 0.000497 ± 6.4e-05 s⁻¹ | 0.000605 ± 7e-05 s⁻¹ | 1050 ± 120 µM | 3.22e-05 ± 8.9e-06 s⁻¹ | 8.62e-05 ± 8.8e-06 s⁻¹ | 0.000278 ± 3.4e-05 s⁻¹
A12U U46C | 0.0152 ± 0.0021 s⁻¹ | 0.00688 ± 0.0018 s⁻¹ | 0.0123 ± 0.0017 s⁻¹ | 2700 ± 520 µM | 0.000227 ± 3.3e-05 s⁻¹ | 0.00106 ± 0.00025 s⁻¹ | 0.00223 ± 0.00068 s⁻¹
C67G C68U | 7.04e-05 ± 1.8e-06 s⁻¹ | 6.33e-05 ± 6e-06 s⁻¹ | 6.92e-05 ± 6.7e-06 s⁻¹ | 234 ± 34 µM | – | 2.51e-05 ± 1e-05 s⁻¹ | 5.35e-05 ± 6.6e-06 s⁻¹
U46A C68A | 1.9e-05 ± 7.6e-06 s⁻¹ | – | – | – | < 1e-05 s⁻¹ | – | –
A53U U54C | 0.00788 ± 0.0015 s⁻¹ | 0.00897 ± 0.0018 s⁻¹ | 0.00704 ± 0.001 s⁻¹ | 619 ± 200 µM | 0.000577 ± 7.7e-05 s⁻¹ | 0.0012 ± 0.00025 s⁻¹ | 0.00401 ± 0.00061 s⁻¹
A6G U31G | 0.000452 ± 9.7e-05 s⁻¹ | 0.000183 ± 3.2e-05 s⁻¹ | 0.000281 ± 5.8e-05 s⁻¹ | 4990 ± 1600 µM | – | – | 4.67e-05 ± 9.4e-06 s⁻¹
U56G | 0.04 ± 0.003 s⁻¹ | 0.0168 ± 0.00087 s⁻¹ | 0.0313 ± 0.0012 s⁻¹ | 3170 ± 310 µM | 0.000527 ± 1.8e-05 s⁻¹ | 0.00186 ± 0.00015 s⁻¹ | 0.00628 ± 0.00028 s⁻¹
U56A | 0.0171 ± 0.0053 s⁻¹ | 0.00725 ± 0.00034 s⁻¹ | 0.0213 ± 0.00079 s⁻¹ | 1750 ± 650 µM | 0.000397 ± 7.8e-06 s⁻¹ | 0.00127 ± 7.4e-05 s⁻¹ | 0.00479 ± 0.00018 s⁻¹
C11A C58A | 2e-05 ± 2.2e-07 s⁻¹ | – | – | 1680 ± 98 µM | < 1e-05 s⁻¹ | < 1e-05 s⁻¹ | < 1e-05 s⁻¹
C10U U54A | 4.72e-05 ± 5.3e-06 s⁻¹ | 4.32e-05 ± 2.1e-05 s⁻¹ | 4.37e-05 ± 9.7e-06 s⁻¹ | – | < 1e-05 s⁻¹ | < 1e-05 s⁻¹ | –
U47A C70A | 0.000263 ± 6.7e-05 s⁻¹ | 0.000186 ± 3.4e-05 s⁻¹ | – | 858 ± 410 µM | – | 3.52e-05 ± 1.2e-05 s⁻¹ | 0.000122 ± 1.9e-05 s⁻¹
U30A A33U | 5.67e-05 ± 3.2e-06 s⁻¹ | – | 4.04e-05 ± 8.7e-06 s⁻¹ | 4010 ± 660 µM | < 1e-05 s⁻¹ | < 1e-05 s⁻¹ | –
C11A A12U U45G U55A C70U | 0.00104 ± 0.00013 s⁻¹ | 7.5e-05 ± 3.1e-05 s⁻¹ | 0.000245 ± 5.6e-05 s⁻¹ | – | – | – | –
U65A C71G | 0.000477 ± 0.00013 s⁻¹ | 0.000382 ± 9.3e-05 s⁻¹ | 0.000383 ± 8.9e-05 s⁻¹ | 1710 ± 720 µM | – | 4.31e-05 ± 1.1e-05 s⁻¹ | 0.000124 ± 1.6e-05 s⁻¹
A42G U47C | 0.00858 ± 0.0022 s⁻¹ | 0.00232 ± 0.00039 s⁻¹ | 0.00583 ± 0.0016 s⁻¹ | 6280 ± 2000 µM | 6.46e-05 ± 2.1e-05 s⁻¹ | 0.000257 ± 7.7e-05 s⁻¹ | 0.00074 ± 0.00014 s⁻¹
U31C U47A | 0.00379 ± 0.00061 s⁻¹ | 0.00178 ± 0.00031 s⁻¹ | 0.00367 ± 0.00049 s⁻¹ | 1800 ± 460 µM | 8.24e-05 ± 1.4e-05 s⁻¹ | 0.000354 ± 7.7e-05 s⁻¹ | 0.00107 ± 0.00022 s⁻¹
A53C U54C | 0.00131 ± 0.00043 s⁻¹ | 0.0011 ± 0.00018 s⁻¹ | 0.000805 ± 0.00023 s⁻¹ | 1870 ± 890 µM | 2.24e-05 ± 9.7e-06 s⁻¹ | 9.33e-05 ± 1.9e-05 s⁻¹ | 0.000355 ± 6.3e-05 s⁻¹
C11U G40A | 0.000548 ± 0.00025 s⁻¹ | 0.000128 ± 3e-05 s⁻¹ | 0.000374 ± 6.8e-05 s⁻¹ | – | – | – | 8.42e-05 ± 2.2e-05 s⁻¹
G40U U57A | 6e-05 ± 6.8e-06 s⁻¹ | – | 2.24e-05 ± 1e-05 s⁻¹ | – | < 1e-05 s⁻¹ | – | –
A15G A52C | 2.96e-05 ± 2e-06 s⁻¹ | – | 2.66e-05 ± 9.9e-06 s⁻¹ | 1090 ± 400 µM | < 1e-05 s⁻¹ | – | –
A14G G43U | 0.000159 ± 2.6e-05 s⁻¹ | 6.85e-05 ± 8.5e-06 s⁻¹ | 0.000131 ± 1.5e-05 s⁻¹ | 2770 ± 980 µM | – | – | 3.9e-05 ± 8.4e-06 s⁻¹
U30A A52U | 0.000132 ± 2.2e-05 s⁻¹ | 4.37e-05 ± 1.6e-05 s⁻¹ | 9.26e-05 ± 1.4e-05 s⁻¹ | 4380 ± 1900 µM | < 1e-05 s⁻¹ | – | –
G32A C71G | 0.000224 ± 3.5e-05 s⁻¹ | 0.00018 ± 2.8e-05 s⁻¹ | 0.000195 ± 2.2e-05 s⁻¹ | 1190 ± 450 µM | – | 5.06e-05 ± 1.5e-05 s⁻¹ | 6.85e-05 ± 1.1e-05 s⁻¹
A36C G66U | < 1e-05 s⁻¹ | – | – | – | – | – | –
U55C U65C | 0.000217 ± 5e-05 s⁻¹ | 0.00011 ± 1.9e-05 s⁻¹ | 0.000217 ± 3.1e-05 s⁻¹ | – | – | – | 7.31e-05 ± 1.1e-05 s⁻¹
A15G A42U | 0.000248 ± 4.1e-05 s⁻¹ | 0.000216 ± 3.8e-05 s⁻¹ | 0.000203 ± 3e-05 s⁻¹ | 1410 ± 570 µM | – | 2.77e-05 ± 1.4e-05 s⁻¹ | 6.62e-05 ± 1.7e-05 s⁻¹
A39G C58G C71A | 2.19e-05 ± 5.6e-06 s⁻¹ | – | – | – | – | – | –
U47C C50G | < 1e-05 s⁻¹ | – | – | – | – | – | < 1e-05 s⁻¹
G13A U31G | 0.000328 ± 7.1e-05 s⁻¹ | 6.35e-05 ± 1.5e-05 s⁻¹ | 0.000153 ± 2.2e-05 s⁻¹ | – | – | – | –
